Patent US20110286916A1 (published 2011)

Assays:
[1] = molecular target: human Notch3-Gal4 chimeric receptor on U2OS FlpIn TREx cells (human, UniProt Q9UM47 40-2321); assay: cell-based or functional assay
[2] = molecular target: T1, Notch1 extracellular fragment (amino acid 19-526) Fc fusion protein, R&D Systems 3647-TK (human, UniProt P46531 19-526); assay: titration ELISA, antigen coated, purified IgG1
T1 construct: bought protein; also called Notch1/Fc; Notch1-ECD Fc fusion protein; not shown: Fc of the bought fusion protein
Description: Plates were blocked with 300 ul of milk blocker per well and incubated for 2 hour at RT. […] After washing plates with PBS or TBS buffer, anti-human lambda light chain antibody with HRP was used for detection antibody and absorbance at 450 nm was read with a plate reader.

T1 sequence (P46531 19-526 limits assumed): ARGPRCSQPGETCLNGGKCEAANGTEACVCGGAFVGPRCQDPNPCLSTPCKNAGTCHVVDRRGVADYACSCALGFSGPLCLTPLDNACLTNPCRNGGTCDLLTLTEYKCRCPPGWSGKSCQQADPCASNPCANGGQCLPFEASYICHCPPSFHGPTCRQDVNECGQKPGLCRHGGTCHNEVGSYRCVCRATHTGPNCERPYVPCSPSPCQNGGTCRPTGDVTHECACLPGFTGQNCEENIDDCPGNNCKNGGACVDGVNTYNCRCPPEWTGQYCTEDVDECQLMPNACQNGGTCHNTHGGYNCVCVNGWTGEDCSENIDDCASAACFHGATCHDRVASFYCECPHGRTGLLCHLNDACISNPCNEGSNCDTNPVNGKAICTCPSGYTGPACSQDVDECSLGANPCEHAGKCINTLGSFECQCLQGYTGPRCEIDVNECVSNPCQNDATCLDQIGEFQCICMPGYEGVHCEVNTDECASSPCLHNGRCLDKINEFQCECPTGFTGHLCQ

- hN3, inhibition of Luc activity at [166 nM] Mab [1]: < 10%
- EC50 [2]: 0.12 nM
B1: WC-159 (antibody, human IgG1, lambda, V domains shown)
VH: QLQLVETGGGLVKPGESLTLSCAASGFTFSSYSMNWVRQAPGKGLEWVSSISSSGSSIYYADSLKGRFTISRDNAKNSLYLQMNSLRAEDTAVYYCTRGTQWLAGVGDYWGKGTLVTVSS
VL: QSALTQPPSASASPGQSVTISCTGTSSDVGAYDSVSWYQQHPGKAPKLIIYDVNNRPSGVSNRFSGSESGNTASLTISGLQAEDEANYYCSSYRNTKTVVFGGGTKLTVLQ
notes: also called N1wc159
